Test results: the supplement of paper PMC10567573

B1: PSD2 (parent)
chain: PLMGETQERERVLTHFSRRYCQCN

Variants of: B1
Assay: protein stability index of a GFP-peptide fusion (GPS, HEK-293T) (PSI 1-6); higher = more stable
Conditions: c terminus: a fixed tail appended
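Note: lentivirally expressed fusions sorted by FACS into six bins by GFP to DsRed ratio, PSI derived from sequencing read proportions per bin multiplied by bin number.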

| Variant | protein stability index |
| --- | --- |
| H15A | 2.62 |
| H15K | 3.41 |
| H15E | 4.15 |
| H15W | 1.2 |
| H15F | 1.47 |
| H15P | 2.6 |
| H15D | 3.15 |
| H15Q | 1.99 |
| H15M | 2.56 |
| H15S | 3.18 |
| H15T | 3.03 |
| H15L | 2.7 |
| H15V | 2.31 |
| H15G | 3.07 |
| H15Y | 2.44 |
| H15N | 3.02 |
| H15C | 2.9 |
| H15R | 2.74 |
| H15I | 2.32 |
| S17D | 3.37 |
| S17N | 3.15 |
| S17T | 2.15 |
| S17A | 2.11 |
| S17F | 1.68 |
| S17M | 2.51 |

| Variant | protein stability index |
| --- | --- |
| S17G | 3.85 |
| S17P | 3.18 |
| S17H | 3.2 |
| S17I | 1.49 |
| S17C | 4.84 |
| S17R | 2.42 |
| S17K | 2.95 |
| S17L | 1.99 |
| S17V | 2.44 |
| S17Y | 2.89 |
| S17Q | 2.97 |
| S17W | 1.52 |
| N24D | 3.23 |
| N24T | 3.74 |
| N24V | 2.69 |
| N24L | 2.71 |
| N24C | 3.05 |
| N24I | 3.07 |
| N24R | 2.14 |
| N24P | 3.02 |
| N24F | 2.79 |
| N24S | 3.38 |
| N24Y | 2.22 |
| N24M | 2.96 |
| N24A | 3.04 |

| Variant | protein stability index |
| --- | --- |
| N24E | 3.84 |
| N24K | 2.2 |
| N24Q | 2.88 |
| N24G | 3.05 |
| N24H | 3.21 |
| R19C | 3.28 |
| R19I | 2.54 |
| R19A | 2.98 |
| R19S | 3.28 |
| R19N | 3.54 |
| R19W | 2.14 |
| R19V | 3.09 |
| R19P | 3.59 |
| R19D | 3.25 |
| R19T | 3.21 |
| R19G | 3.71 |
| R19F | 2.88 |
| R19Q | 3.29 |
| R19Y | 1.98 |
| R19M | 2.22 |
| R19E | 3.74 |
| R19L | 2.4 |
| R19H | 3.24 |
| R19K | 3.17 |
| R18I | 2.27 |

| Variant | protein stability index |
| --- | --- |
| R18D | 4.01 |
| R18N | 3.06 |
| R18Y | 1.97 |
| R18C | 1.77 |
| R18F | 1.99 |
| R18K | 3.09 |
| R18T | 3.09 |
| R18P | 3.01 |
| R18V | 2.02 |
| R18L | 2.24 |
| R18H | 3.96 |
| R18M | 2.14 |
| R18S | 3.54 |
| R18Q | 2.77 |
| R18W | 1.79 |
| R18G | 4.12 |
| R18A | 3.49 |
| R18E | 4.21 |
| F16K | 3 |
| F16M | 3.09 |
| F16G | 3.84 |
| F16S | 4.35 |
| F16C | 4.41 |
| F16Y | 2.99 |
| F16R | 2.21 |

| Variant | protein stability index |
| --- | --- |
| F16N | 3.58 |
| F16I | 2.67 |
| F16H | 4.05 |
| F16P | 3.9 |
| F16V | 3 |
| F16L | 3.79 |
| F16Q | 4.78 |
| F16W | 2.1 |
| F16A | 3.85 |
| F16D | 4.44 |
| F16T | 3.91 |
| T14P | 2.88 |
| T14H | 2.65 |
| T14Q | 2.56 |
| T14N | 2.63 |
| T14Y | 1.71 |
| T14G | 2.83 |
| T14I | 2.13 |
| T14R | 2.73 |
| T14M | 2.72 |
| T14L | 2.02 |
| T14V | 2.69 |
| T14S | 3.18 |
| C21M | 3.61 |
| C21N | 3.29 |

| Variant | protein stability index |
| --- | --- |
| C21T | 4.43 |
| C21A | 3.46 |
| C21K | 2.88 |
| C21S | 3.53 |
| C21V | 3.68 |
| C21F | 3.27 |
| C21P | 3.92 |
| C21H | 2.62 |
| C21D | 4.01 |
| C21G | 4.23 |
| C21Q | 3.67 |
| C21L | 3.23 |
| C21I | 3.06 |
| C21E | 3.81 |
| C21W | 3.17 |
| Y20C | 3.91 |
| Y20R | 3.95 |
| Y20P | 3.72 |
| Y20S | 3.84 |
| Y20I | 2.62 |
| Y20M | 2.69 |
| Y20E | 4.57 |
| Y20G | 3.86 |
| Y20H | 2.43 |
| Y20D | 4.19 |

| Variant | protein stability index |
| --- | --- |
| Y20T | 3.63 |
| Y20F | 2.96 |
| Y20L | 3 |
| Y20N | 3.81 |
| Y20K | 3.92 |
| Y20V | 4.11 |
| Y20W | 2.42 |
| C23S | 3.87 |
| C23F | 3.18 |
| C23W | 2.67 |
| C23I | 2.99 |
| C23M | 2.92 |
| C23Q | 4.39 |
| C23K | 4.92 |
| C23D | 4.04 |
| C23L | 2.9 |
| C23P | 4.09 |
| C23H | 3.44 |
| C23A | 4.01 |
| C23V | 3.56 |
| C23Y | 2.85 |
| C23T | 3.87 |
| C23R | 3.6 |
| C23N | 4.07 |
| C23G | 3.56 |

| Variant | protein stability index |
| --- | --- |
| Q22W | 2.49 |
| Q22L | 2.39 |
| Q22T | 3.08 |
| Q22N | 3.18 |
| Q22P | 2.71 |
| Q22M | 2.1 |
| Q22D | 3.85 |
| Q22V | 1.69 |
| Q22G | 2.29 |
| Q22E | 3.96 |
| Q22H | 2.62 |
| Q22A | 3.55 |
| Q22Y | 2.08 |
| Q22K | 3.02 |
| Q22F | 2.42 |
| Q22I | 2.09 |
| Q22R | 3.98 |
| Q22S | 3.04 |
| Q22C | 2.11 |
